{"source": "patent US20260176378A1", "about": "(DYAX, published 2026)", "binders": {"B1": {"name": "M29-C07 (Fab, V domains shown)", "VH": "EVQLLESGGGLVQPGGSLRLSCAASGFTFSGYDMMWVRQAPGKGLEWVSVISSSGGNTAYADSVKGRFTISRDNSKNTLYLQMNSLRAEDTAVYYCARESSGLYYFDYWGQGTLVTVSS", "VL": "not shown"}, "B2": {"name": "M77-H04 (Fab, V domains shown)", "VH": "EVQLLESGGGLVQPGGSLRLSCAASGFTFSYYTMIWVRQAPGKGLEWVSGIRSSGGGTRYADSVKGRFTISRDNSKNTLYLQMNSLRAEDTAVYYCAKDGSRYSYGSIYYYYGMDAWGQGTTVTVSS", "VL": "not shown"}, "B3": {"name": "M76-H02 (Fab, V domains shown)", "VH": "EVQLLESGGGLVQPGGSLRLSCAASGFTFSMYWMQWVRQAPGKGLEWVSYIYPSGGPTKYADSVKGRFTISRDNSKNTLYLQMNSLRAEDTAVYYCARPSGSYGDAFDIWGQGTMVTVSS", "VL": "DIQMTQSPSSLSASEGDRVTITCRASQDISVYLNWYQMKSGKAPKLLIYGGASLQSGVPARFSGSGYGTDFTLTITDLRPEDFATYYCQQSYSLPFTFGGGTKVEIK"}, "B4": {"name": "M29-D10 (Fab, V domains shown)", "VH": "EVQLLESGGGLVQPGGSLRLSCAASGFTFSWYPMYWVRQAPGKGLEWVSSIGSSGGPTPYADSVKGRFTISRDNSKNTLYLQMNSLRAEDTAVYYCARWADYGGSLDYWGQGTLVTVSS", "VL": "DIQMTQSPSSLSASVGDTVSITCRASQSITIYLNWYQHKPGKAPNLLIYGASNLHSGVPSRFSGSGSGTDFTLTISSLQPEDFATYYCQQSYDTPLTFGGGTKVEIK"}, "B5": {"name": "M76-G06 (Fab, V domains shown)", "VH": "EVQLLESGGGLVQPGGSLRLSCAASGFTFSGYIMHWVRQAPGKGLEWVSWIYPSGGWTEYADSVKGRFTISRDNSKNTLYLQMNSLRAEDTAVYYCARDAPGVGAIDYWGQGTLVTVSS", "VL": "DIQMTQSPSSLSASVRDRVTITCRASQSISTYLNWYQQKPGEAPKLLVFAASSLQSGVPSRFSGSGSGTDFTLSISSLQPEDFATYYCQQSYSTPHTFGQGAKVEIK"}, "B6": {"name": "M29-G08 (Fab, V domains shown)", "VH": "EVQLLESGGGLVQPGGSLRLSCAASGFTFSYYHMWWVRQAPGKGLEWVSGISPSGGFTFYADSVKGRFTISRDNSKNTLYLQMNSLRAEDTAVYYCARDYYYDSSGYSPLGYWGQGTLVTVSS", "VL": "DIQMTQSPATLSASPGETVTLSCRASQNIGNDVAWYRQRPGQAPRLLIHHASTRAYGIPARLRGSGSATEFTLTITSLEPEDFAIYYCQQFYDWPAHTFALGTRLEIKR"}, "B7": {"name": "M74-A07 (Fab, V domains shown)", "VH": "EVQLLESGGGLVQPGGSLRLSCAASGFTFSQYLMMWVRQAPGKGLEWVSSIYPSGGYTSYADSVKGRFTISRDNSKNTLYLQMNSLRAEDTAVYYCARVSTAVADNDYWGQGTLVTVSS", "VL": "DIQMTQSPSSLSASVRDRVTITCRTSQNINTYLNWYYQAPGRAPKLLIFGVSSLHRGVSSRFSGSGDGTEFTLTISSLQPEDIGTYFCQQSYSSPWTFGQGTKVEIK"}, "B8": {"name": "M6-A06 (Fab, V domains shown)", "VH": "B7 VH with Q31L, L33Q, M35T, S50G, Y52W, Y57F, S59D", "VL": "DIQMTQSPSSLSASVGDSVTISCRASQSISMYLNWYQHKPGKAPKLLIYGTSSLQSGVPSRFSGSGPGGTDFTLTISSLQPEDFATYYCQQSYSAPWTFGQGTKVEIK"}, "B9": {"name": "M6-D03 (Fab, V domains shown)", "VH": "B7 VH with Q31K, L33F, M35G, S50V, Y52G, P53S, Y57W", "VL": "not shown"}, "B10": {"name": "M9-A03 (Fab, V domains shown)", "VH": "not shown", "VL": "DIQMTQSPSSLSASLGDRVTITCRASQNIDIYLNWYQQTPGKAPKLLIYGAYNLQSGVPSRFSGSGSGTDFTLTISSLQPEDFGTYYCQQSYGTPVFGQGTKLEIK"}, "B11": {"name": "M8-E06 (Fab, V domains shown)", "VH": "EVQLLESGGGLVQPGGSLRLSCAASGFTFSHYFMTWVRQAPGKGLEWVSSIVPSGGMTQYADSVKGRFTISRDNSKNTLYLQMNSLRAEDTAVYYCARDSYSSSWFDIWGQGTMVTVSS", "VL": "not shown"}, "B12": {"name": "M6-A08 (Fab, V domains shown)", "VH": "EVQLLESGGGLVQPGGSLRLSCAASGFTFSPYPMQWVRQAPGKGLEWVSSISSSGGMTEYADSVKGRFTISRDNSKNTLYLQMNSLRAEDTAVYYCARDDYGGKGGAFDIWGQGTMVTVSS", "VL": "DIQMTQSPSSLSASVGDRVTITCRASQRISFYLNWFQQKPGKAPNLLIYGASSLQSGVPSRFSGSGSGTDFTLTISSLQPKDFGTYYCQQTFSTPNTFGQGTKLEIK"}, "B13": {"name": "M29-E02 (Fab, V domains shown)", "VH": "EVQLLESGGGLVQPGGSLRLSCAASGFTFSRYPMMWVRQAPGKGLEWVSVIYPSGGDTFYADSVKGRFTISRDNSKNTLYLQMNSLRAEDTAVYYCASGDDYLWEAAVYWGQGTLVTVSS", "VL": "QSVLTQPPSVSEAPRQRVTISCSGSSSNIGNNAVSWYQQLPGKAPKLLIYYDDLLPSGVSDRFSGSKSGTSASLAISGLRSEDEADYYCAAWDDSLNGFVFGTGTKVTVL"}, "B14": {"name": "M6-D08 (Fab, V domains shown)", "VH": "EVQLLESGGGLVQPGGSLRLSCAASGFTFSRYHMVWVRQAPGKGLEWVSSISPSGGWTNYADSVKGRFTISRDNSKNTLYLQMNSLRAEDTAMYYCAREMATIAGQFDPWGQGTLVTVSS", "VL": "DIQMTQSPSSLSASVGDRVTITCRASQSISSYLNWYQQKPGKAPKLLIYGASSLQSGVPSRFSGSGSGTDFTLTISSLQPEDSATYYCQQSYTRWTFGQGTKVEIK"}, "B15": {"name": "M8-D05 (Fab, V domains shown)", "VH": "EVQLLESGGGLVQPGGSLRLSCAASGFTFSLYNMNWVRQAPGKGLEWVSSISPSGGFTDYADSVKGRFTISRDNSKNTLYLQMNSLRAEDTAVYYCARDLDLGILDYWGQGTLVTVSS", "VL": "DIQMTQSPSFVSASVGDRVTITCRASQDISSWLVWYQQKPGKGPKLLIYDASNLQSGVPSRFSGGGSGTHFTLTISSLQPEDFATYYCQQADGFPLTFGGGTKVEMK"}, "B16": {"name": "M8-G09 (Fab, V domains shown)", "VH": "EVQLLESGGGLVQPGGSLRLSCAASGFTFSLYEMLWVRQAPGKGLEWVSVIYPSGGYTDYADSVKGRFTISRDNSKNTLYLQMNSLRAEDMAVYYCARSFSGFGEIDYWGQGTLVTVSS", "VL": "DIQMTQSPSSLSASVGDTVTITCRASQGVSYYLAWFQQKPGKAPKSLIYGASSLQSGVPSKFSGSGSGTVFTLTISSLQPDDFATYYCQQYNTYPPTFGQGTRLDIK"}, "B17": {"name": "M6-G05 (Fab, V domains shown)", "VH": "EVQLLESGGGLVQPGGSLRLSCAASGFTFSRYRMVWVRQAPGKGLEWVSSIYPSGGMTAYADSVKGRFTISRDNSKNTLYLQMNSLRAEDTAVYYCARDAVGIGDAFDIWGQGTMVTVSS", "VL": "DIQMTQSPSSLSASVGDRVTITCRASQSISTYLNWYQLKPGKAPKLLIYNAFSMERGVPSTISGSGSGTDFTLTISSLQPEDFATYYCQQSYTTPTTFGQGTKVEIK"}, "B18": {"name": "M8-H04 (Fab, V domains shown)", "VH": "EVQLLESGGGLVQPGGSLRLSCAASGFTFSGYWMGWVRQAPGKGLEWVSSISSSGGWTQYADSVKGRFTISRDNSKNTLYLQMNSLRAEDTATYYCARDDEIAAGGAFDIWGQGAMVTVSS", "VL": "DIQMTQSPSSLSASIGDRVTITCRASQYISTYLNWYEQKPGKAPKLLIYGTSSLQSGVPSRFSGSGSGTEFSLTISSLQPEDFATYYCQQSFTTPFTFGQGTKLEIK"}, "B19": {"name": "M76-F02 (Fab, V domains shown)", "VH": "EVQLLESGGGLVQPGGSLRLSCAASGFTFSLYDMNWVRQAPGKGLEWVSGISPSGGQTMYADSVKGRFTISRDNSKNTLYLQMNSLRAEDTAVYYCARQPMISAFDIWGQGTMVTVSS", "VL": "DIQMTQSPSSLSASVGDRVTITCRASQTIDNYLHWYQQKPGKAPKVLIHDASSLQSGVPPRFSGSGSGTDFTLTISSLQPEDFATYYCQQSYDTPQYTFGQGTKLEIK"}, "B20": {"name": "M28-F07 (Fab, V domains shown)", "VH": "EVQLLESGGGLVQPGGSLRLSCAASGFTFSDYTMYWVRQAPGKGLEWVSSIVPSGGHTLYADSVKGRFTISRDNSKNTLYLQMNSLRAEDTAVYYCAKDHLSSWYGGFFDYWGQGTLVTVSS", "VL": "DIQMTQSPSSVSASVGDRVTITCRASQGISSWLAWYQQKPGKAPKLLIYATSGLQSGVPSRFSGSGSGTDFTLTISSLQPEDFATYYCQQAKSFPLTFGGGTRVEIK"}, "B21": {"name": "M76-G02 (Fab, V domains shown)", "VH": "EVQLLESGGGLVQPGGSLRLSCAASGFTFSLYAMWWVRQAPGKGLEWVSYISSSGGFTSYADSVKGRFTISRDNSKNTLYLQMNSLRAEDTAVYYCARYRVGVAATDYWGQGTLVTVSS", "VL": "not shown"}, "B22": {"name": "M77-C07 (Fab, V domains shown)", "VH": "B5 VH with G31L, H35G, W50G, W57F, E59M, D99E, A100S, P101S, G104A, I106P", "VL": "DIQMTQSPSTLSASVGDRVTITCRASQNISSYLNWYQQKPGKAPKLLIYAASSLQSGVPSRFSGSGSGTDFTLTISSLQPEDFATYSCQQSYSTPRTFGQGTKVEIK"}, "B23": {"name": "M8-C04 (Fab, V domains shown)", "VH": "EVQLLESGGGLVQPGGSLRLSCAASGFTFSYYPMQWVRQAPGKGLEWVSYIYPSGGLTSYADSVKGRFTISRDNSKNTLYLQMNSLRAEDTAVYYCARLFYGSGSVGFEYWGQGTLVTVSS", "VL": "QSALTQPPSVSVSPGQTASITCSGDKLGDKYTSWHQQKPGQSPVLVIYQDSKRPSGIPERFSGSNSGNTATLTISGTQAMDEADYYCQAWDSSTVFGGGTRLTVL"}, "B24": {"name": "M29-G10 (Fab, V domains shown)", "VH": "EVQLLESGGGLVQPGGSLRLSCAASGFTFSFYKMIWVRQAPGKGLEWVSSISSSGGSTQYADSVKGRFTISRDNSKNTLYLQMNSLRAEDTAVYYCARDRVDLGYLDYWGQGTLVTVSS", "VL": "DIQMTQSPSSLSSSVGDSATITCRASQSISIYLNWYQQKPGKAPKILIYGASQLESGVPSRFSGSGSGTDFTLTVSGLQPEDFATYWCQQSYNVPYTFGQGTKLEIK"}}, "note": "Where a chain is given by its changes, count along the chain named."}
{"biological_target": "T1, human plasma kallikrein (human, UniProt P03952 20-390; P03952 391-638)", "T1 construct": "two disulfide-linked chains; NP_000883.2; also called pKal; hpKal", "T1 sequence (P03952 20-390 limits assumed, chain 1 of 2)": "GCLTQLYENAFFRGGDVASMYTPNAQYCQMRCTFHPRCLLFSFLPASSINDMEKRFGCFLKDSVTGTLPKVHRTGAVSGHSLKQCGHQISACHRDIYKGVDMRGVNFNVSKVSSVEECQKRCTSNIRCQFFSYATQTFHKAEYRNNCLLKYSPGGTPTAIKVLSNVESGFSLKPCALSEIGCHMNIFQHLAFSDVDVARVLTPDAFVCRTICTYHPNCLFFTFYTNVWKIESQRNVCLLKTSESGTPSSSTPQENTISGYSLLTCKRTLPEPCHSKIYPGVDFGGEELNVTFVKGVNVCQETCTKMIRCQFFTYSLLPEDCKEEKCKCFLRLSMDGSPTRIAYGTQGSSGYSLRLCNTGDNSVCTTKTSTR", "T1 sequence (P03952 391-638 limits assumed, chain 2 of 2)": "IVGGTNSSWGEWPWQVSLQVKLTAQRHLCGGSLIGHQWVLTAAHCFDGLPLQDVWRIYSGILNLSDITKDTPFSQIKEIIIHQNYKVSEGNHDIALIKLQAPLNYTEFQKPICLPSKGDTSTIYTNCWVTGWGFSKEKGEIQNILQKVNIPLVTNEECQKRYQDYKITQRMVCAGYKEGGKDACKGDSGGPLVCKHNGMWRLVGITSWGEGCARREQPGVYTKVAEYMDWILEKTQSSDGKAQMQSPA", "test": "ELISA, biotinylated pKal signal over streptavidin background"}
{"binder": "B1", "ELISA (T/B)": 5.2}
{"binder": "B2", "ELISA (T/B)": 7.6}
{"binder": "B3", "ELISA (T/B)": 13.4}
{"binder": "B4", "ELISA (T/B)": 23.6}
{"binder": "B5", "ELISA (T/B)": 11.8}
{"binder": "B6", "ELISA (T/B)": 40.4}
{"binder": "B7", "ELISA (T/B)": 8.6}
{"binder": "B8", "ELISA (T/B)": 11.7}
{"binder": "B9", "ELISA (T/B)": 15.5}
{"binder": "B10", "ELISA (T/B)": 14.4}
{"binder": "B11", "ELISA (T/B)": 8.8}
{"binder": "B12", "ELISA (T/B)": 23.4}
{"binder": "B13", "ELISA (T/B)": 2}
{"binder": "B14", "ELISA (T/B)": 16}
{"binder": "B15", "ELISA (T/B)": 11.9}
{"binder": "B16", "ELISA (T/B)": 28.2}
{"binder": "B17", "ELISA (T/B)": 18.5}
{"binder": "B18", "ELISA (T/B)": 3.3}
{"binder": "B19", "ELISA (T/B)": 6.4}
{"binder": "B20", "ELISA (T/B)": 33}
{"binder": "B21", "ELISA (T/B)": 10.3}
{"binder": "B22", "ELISA (T/B)": 16.1}
{"binder": "B23", "ELISA (T/B)": 44.7}
{"binder": "B24", "ELISA (T/B)": 16.4}
